Assay results as given in the supplement of paper PMC10567573.

B1: SNX8 (parent)
chain: LHQETQLIHVYLPLTSHILRAFVN

Variants of: B1
Test: protein stability index of a GFP-peptide fusion (GPS, HEK-293T) (PSI 1-6); higher = more stable
Details: c terminus: a fixed tail appended
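Further: lentivirally expressed fusions sorted by FACS into six bins by GFP to DsRed ratio, PSI derived from sequencing read proportions per bin multiplied by bin number.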

Protein stability index of substitutions, site by site:
T15: Y 1.79; I 2.85; M 1.58; A 2.23; V 4.03; Q 1.75; R 2.25; C 2.46; K 3.35; H 3.58; P 2.3; W 2.9; L 1.86; F 1.58; D 3.4; G 1.2; N 3.74
Q3: N 2.96; F 3.79; W 2.73; D 2.8; S 3.32; E 2.55; H 2.62; V 2.47; A 3.04; M 2.15; G 2.67; L 2.24; C 2.06; P 2.31; I 3.42; R 2.48; K 4.06; Y 3.12
V10: P 1.76; K 1.23; M 2.22; N 1.88; Y 2.24; A 1.19; S 2.33; G 1.51; E 2.87; R 2.21; D 1.87; T 1.73; Q 1.71; H 1.66; W 2.2
H2: V 2.6; L 1.83; Y 2.96; R 1.82; T 1.68; Q 2.5; F 2.04; P 2.04; N 2.5; S 2.03; D 3.62; G 2.72; W 3.21
Q6: F 2.33; N 1.6; C 2.63; I 2.75; H 2.75; G 2.55; W 3.31; K 1.7; V 3.73; R 3.29; L 3.52; S 2.04; P 2.41; E 2.88; M 2.2; D 2.01
H9: L 3.18; Y 3.11; V 3.08; W 2.31; N 2.43; E 1.65; M 2.9; A 2.16; G 3.08; C 3.65; T 2.96; K 1.43; I 2.82; S 2.4; P 2.22
F22: K 2.21; Q 2.57; R 2.4; P 3.46; M 1.52; D 2.12; L 2.39; N 1.92; S 2.14; H 1.96; G 2.88; I 1.79; C 3.79
E4: T 1.4; C 1.83; Q 3.2; W 1.8; I 2.46; L 2.8; Y 2.38; R 2.25; H 1.82; A 1.83; K 4.66; V 3.22; P 2.18; N 3.07; G 2.64; F 2.34; M 2.04
L1: T 3.62; V 2.64
I8: V 1.45; C 2.87; T 2.1; G 1.42; F 2.5; M 3.01; P 1.65; Y 4.04; N 2.09; E 2.44; W 2.6; S 2.03; R 1.78; D 2.22; A 2.03; L 1.67; Q 1.68; K 2.3
L19: I 3.22; C 2.66; G 3.75; A 2.99; Q 5.08; N 1.99; D 1.52; V 4.01; W 1.57; E 2.23; Y 3.67; T 1.84; P 3.45; H 2.24; F 3.61; S 2.3; K 2.47
Y11: A 2.63; V 1.99; Q 3.1; S 1.91; N 2.81; D 1.47
